Test results taken from US10058586B2, “Use of human small leucine zipper protein in adipocyte differentiation procedure” (Korea University Research and Business Foundation, priority 2013, dated 2018).

T1: PPARγ2 (Homo sapiens, UniProt P37231)
T1 sequence (P37231 1-505): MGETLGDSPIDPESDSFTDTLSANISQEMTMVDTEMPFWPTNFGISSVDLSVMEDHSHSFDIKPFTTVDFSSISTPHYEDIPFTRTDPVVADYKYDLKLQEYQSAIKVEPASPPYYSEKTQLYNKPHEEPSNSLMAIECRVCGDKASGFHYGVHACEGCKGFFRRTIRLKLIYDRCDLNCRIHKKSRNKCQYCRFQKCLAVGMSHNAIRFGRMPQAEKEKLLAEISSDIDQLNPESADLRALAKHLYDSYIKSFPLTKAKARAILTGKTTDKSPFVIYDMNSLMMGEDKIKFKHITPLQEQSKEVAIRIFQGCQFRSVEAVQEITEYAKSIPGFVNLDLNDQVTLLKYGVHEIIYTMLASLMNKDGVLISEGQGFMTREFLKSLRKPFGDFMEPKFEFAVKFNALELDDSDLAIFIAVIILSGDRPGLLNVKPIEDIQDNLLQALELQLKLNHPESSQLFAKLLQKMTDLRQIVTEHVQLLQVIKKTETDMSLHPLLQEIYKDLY


Target: T1, PPARγ2
Assay: Luciferase reporter gene analysis (FABP4-Luc) of PPARγ2 transcriptional activity in 293T cells
Type: cell-based
Design: expressed in transfected cells; host or cells: 293T cells
Conditions: 293T cells; for PPARγ2 transcriptional activity (luciferase): sLZIP or deletion mutants 0.1 μg, RZD treated; for transcriptional activity of PPARγ2 (luciferase): sLZIP 0.1 μg
Description: C3H10T1/2 and 293T cells were plated in a 12-well culture dish at a density of 2×10^5 cells/well and incubated for 24 hours. Then, according to instructions of the manufacturer, the cells were transfected with a 0.2 μg of reporter genes and 0.1 to 0.5 μg of a laboratory plasmid using Lipofectamine 2000 or Genefectine. After 24 hours, the cells were cultured in a serum-free DMEM with or without 10 nM of rosiglitazone. siRNAs were prepared using sLZIP and HDAC target sequences (Table 1). For an RNA interference experiment, according to instructions of the manufacturer, the cells were transfected with scrambled control group RNA and appropriate siRNAs using Lipofectamine 2000. Human MSC and C3H10T/1/2 cells were infected with an adenovirus vector containing cDNA of human sLZIP or an empty vector. The infected medium was exchanged with a fresh medium after two hours.
Appropriately transfected cells were washed with cold PBS twice, and a reporter lysis buffer (Promega) was used and lysed in a culture dish. Luciferase analysis was performed using a luciferase analysis system (Promega Corporation, Madison, Wis.). A luciferase activity was recorded in Luminometer 20/20^n (Turner BioSystems, Sunnyvale, Calif.) according to instructions of the manufacturer. The luciferase activity was normalized to a β-galactosidase activity. For β-galactosidase analysis, CMV-β-galactosidase was transfected with luciferase reporter genes. All pieces of data were represented as mean±standard deviation of the results from at least three independent experiments.
In order to examine an effect of sLZIP on the transcriptional activity of PPARγ2, 293T cells were temporarily transfected with PPARγ2 (0.5 μg), β-galactosidase (0.1 μg), FABP4-Luc reporter genes (0.2 μg) and sLZIP at different contents (0.1 to 0.5 μg). After the transfection, the cells were stimulated with or without 10 nM of rosiglitazone (RZD) (FIG. 1A), pioglitazone (PZD) (FIG. 1B), and troglitazone (TZD) (FIG. 1C). A relative luciferase activity was analyzed with or without cell ligand treatment 24 hours after transfection. Also, the 293T cells were transiently transfected with si-sLZIP at different contents (50 and 100 nM), and the cells were treated or not treated with RZD (FIG. 1D). FABP4-Luc stable C3H10T1/2 cells were infected with a sLZIP-expressing adenovirus, and then differentiated into adipocytes for 4 days (FIG. 1E). A luciferase activity was normalized to a β-galactosidase activity and represented as a relative activity (fold change). All experiments were repeated three times, and bars in the graph represent mean±standard deviation. *, P<0.05; **, P<0.01
For this purpose, 293T cells were transiently transfected with PPARγ2 (0.5 μg), (3-galactosidase (0.1 μg), FABP4-Luc reporter genes (0.2 μg) and sLZIP (0.1 μg). After the transfection, the cells were stimulated with or without 10 nM of RZD and 10 nM of TSA (FIG. 4A). A promoter activity was measured according to luciferase analysis. In the 293T cells, FABP4-Luc reporter genes, sLZIP, PPAR, β-galactosidase, and 100 nM of si-RNAs and HDAC1, 2, 3 and 8 for a control group were expressed. After the transfection, the cells were stimulated with or without 10 nM of RZD, and a promoter activity was measured (FIG. 4B). 293T cells were temporarily transfected with FABP4-Luc reporter genes, PPARγ2, β-galactosidase, HDAC3 (0.5 μg) and sLZIP (0.1 μg). After the transfection, the cells were stimulated with or without 10 nM of RZD, and luciferase analysis was performed (FIG. 4C). A luciferase activity was normalized to a β-galactosidase activity and represented as a relative intensity (fold change). All experiments were repeated three times, and bars in the graph represent mean±standard deviation. GFP-sLZIP expression constructs were expressed in C3H10T1/2 cells, rabbit anti-HDAC3 antibodies and Texas Red-labeled anti-rabbit antibodies were used and analysis was performed under a fluorescence microscope. The nucleus was stained with DAPI (FIG. 4D). […]

Row | Molecule | PPARγ2 transcriptional activity (luciferase) | transcriptional activity of PPARγ2 (luciferase) (cells treated with 10 nM TSA (HDAC inhibitor)) | transcriptional activity of PPARγ2 (luciferase) (no TSA) | transcriptional activity of PPARγ2 (relative luciferase activity) (sLZIP 0.1 to 0.5 μg, with or without 10 nM RZD, PZD or TZD) | sLZIP-mediated PPARγ2 transcriptional activity (luciferase) (transfection of both sLZIP (0.1 μg) and HDAC3 (0.5 μg))
1 | N domains of sLZIP: N-terminal deletion mutant of sLZIP, residues 1-228 (protein, left off: a dimerising Fc or GST) MELELDAGDQDLLAFLLEESGDLGTAPDEAVRAPLDWALPLSEVPSDWEVDDLLCSLLSPPASLNILSSSNPCLVHHDHTYSLPRETVSMDLESESCRKEGTQMTPQHMEELAEQEIARLVLTDEEKSLLEKEGLILPETLPLTKTEEQILKRVRRKIRNKRSAQESRRKKKVYVGGLESRVLKYTAQNMELQNKVQLLEEQNLSLLDQLRKLQAMVIEISNKTSSSS | The transcriptional activity of PPARγ2 was inhibited | – | – | – | –
2 | sLZIP: human small leucine-zipper protein, isoform of LZIP, 354 amino acids, no transmembrane domain; GenBank FJ263669, SEQ ID NO: 1 (protein, listed as Homo sapiens) MELELDAGDQDLLAFLLEESGDLGTAPDEAVRAPLDWALPLSEVPSDWEVDDLLCSLLSPPASLNILSSSNPCLVHHDHTYSLPRETVSMDLESESCRKEGTQMTPQHMEELAEQEIARLVLTDEEKSLLEKEGLILPETLPLTKTEEQILKRVRRKIRNKRSAQESRRKKKVYVGGLESRVLKYTAQNMELQNKVQLLEEQNLSLLDQLRKLQAMVIEISNKTSSSSMYSSDTRGSLPAEHGVLSRQLRALPSEDPYQLELPALQSEVPKDSTHQWLDGSDCVLQAPGNTSCLLHYMPQAPSAEPPLEWPFPDLFSEPLCRGPILPLQANLTRKGGWLPTGSPSVILQDRYSG | still inhibited the PPARγ2 transcriptional activity | did not decrease the transcriptional activity of PPARγ2 | inhibits the transcriptional activity of PPARγ2 | inhibits the transcriptional activity of PPARγ2 in a concentration-dependent manner | significantly down-regulated
